The source of these data is patent publication US20230398116A1, “Agent for reversing resistance to anticancer drugs” (Y'S AC CO., LTD., priority 2020, published 2023).

Assay [1] deals with T1, human EphA3 on the surface of HCC70 cells (human, UniProt P29320 21-983).
T1 construct: whole, on cells; Endogenous receptor on HCC70 cells; also called cell surface EphA3; EphA3 receptor
T1 sequence (looked up): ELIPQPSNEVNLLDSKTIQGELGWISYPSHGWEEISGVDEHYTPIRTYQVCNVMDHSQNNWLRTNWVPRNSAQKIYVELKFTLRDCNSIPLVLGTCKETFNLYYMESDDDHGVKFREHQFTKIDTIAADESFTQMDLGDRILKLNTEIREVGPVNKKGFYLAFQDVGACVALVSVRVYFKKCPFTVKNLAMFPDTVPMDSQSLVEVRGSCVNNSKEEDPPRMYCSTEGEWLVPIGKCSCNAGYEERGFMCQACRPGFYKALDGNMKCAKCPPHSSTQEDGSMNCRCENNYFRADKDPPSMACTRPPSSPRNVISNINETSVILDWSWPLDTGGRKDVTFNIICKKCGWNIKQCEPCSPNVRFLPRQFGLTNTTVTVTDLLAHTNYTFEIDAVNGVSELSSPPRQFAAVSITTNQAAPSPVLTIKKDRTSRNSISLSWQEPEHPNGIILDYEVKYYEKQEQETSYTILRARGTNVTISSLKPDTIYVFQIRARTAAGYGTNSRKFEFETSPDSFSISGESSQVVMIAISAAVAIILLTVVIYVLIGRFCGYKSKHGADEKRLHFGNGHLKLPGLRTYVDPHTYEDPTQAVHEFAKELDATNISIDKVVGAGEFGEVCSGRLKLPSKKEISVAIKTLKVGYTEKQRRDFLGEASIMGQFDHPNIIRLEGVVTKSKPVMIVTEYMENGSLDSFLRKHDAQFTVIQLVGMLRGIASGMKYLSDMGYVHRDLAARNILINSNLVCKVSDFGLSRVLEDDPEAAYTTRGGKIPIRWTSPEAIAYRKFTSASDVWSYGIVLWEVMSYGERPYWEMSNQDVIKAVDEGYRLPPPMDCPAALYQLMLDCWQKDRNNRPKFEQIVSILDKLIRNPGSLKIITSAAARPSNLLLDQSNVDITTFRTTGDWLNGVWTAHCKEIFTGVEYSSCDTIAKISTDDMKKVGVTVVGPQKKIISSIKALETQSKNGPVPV
Kind of assay: immunofluorescence colocalization on HCC70 cells (FIG. 21). The protocol:
IL-26 merged with EphA3 on the cell surface. […] Original magnification 200×. Scale bar=20 μm. Representative images of three independent experiments with similar results are shown.
(§1) E0771 and HCC70 cells (1×10⁵) were cultured for 24 hours in RPMI1640 medium with 10% FCS on Lab-Tek chamber slides (Thermo Fisher Scientific). The cultured cells were stimulated with Alexa Fluor 488 labeled IL-26 (30 ng/ml) in the presence or absence of recombinant human and mouse EphA3-Ig for 1 hour. HCC70 cells were stimulated with IL-26 (30 ng/ml) in the presence or absence of gefitinib (40 μM), a signal inhibitor, and a neutralizing antibody for 24 hours. Subcutaneous tumor samples obtained from mice were fixed in 4% paraformaldehyde (Thermo Fisher Scientific) and embedded in OCT compound (Tissue-Tek (registered trademark), Sakura Finetek, Japan). Cells and slides were immunostained with each antibody and observed using a Zeiss inverted microscope and Axiovision 2.0 program (Carl Zeiss, Germany). The fluorescence intensity was quantified with Image-J software (NIH). The images were captured using a 100×400× objective.

Assay [2] deals with T2, mouse EphA3 on the surface of E0771 cells (mouse, UniProt P29319 21-983).
T2 construct: whole, on cells; Endogenous receptor on E0771 cells; also called cell surface EphA3; EphA3 receptor
T2 sequence (looked up): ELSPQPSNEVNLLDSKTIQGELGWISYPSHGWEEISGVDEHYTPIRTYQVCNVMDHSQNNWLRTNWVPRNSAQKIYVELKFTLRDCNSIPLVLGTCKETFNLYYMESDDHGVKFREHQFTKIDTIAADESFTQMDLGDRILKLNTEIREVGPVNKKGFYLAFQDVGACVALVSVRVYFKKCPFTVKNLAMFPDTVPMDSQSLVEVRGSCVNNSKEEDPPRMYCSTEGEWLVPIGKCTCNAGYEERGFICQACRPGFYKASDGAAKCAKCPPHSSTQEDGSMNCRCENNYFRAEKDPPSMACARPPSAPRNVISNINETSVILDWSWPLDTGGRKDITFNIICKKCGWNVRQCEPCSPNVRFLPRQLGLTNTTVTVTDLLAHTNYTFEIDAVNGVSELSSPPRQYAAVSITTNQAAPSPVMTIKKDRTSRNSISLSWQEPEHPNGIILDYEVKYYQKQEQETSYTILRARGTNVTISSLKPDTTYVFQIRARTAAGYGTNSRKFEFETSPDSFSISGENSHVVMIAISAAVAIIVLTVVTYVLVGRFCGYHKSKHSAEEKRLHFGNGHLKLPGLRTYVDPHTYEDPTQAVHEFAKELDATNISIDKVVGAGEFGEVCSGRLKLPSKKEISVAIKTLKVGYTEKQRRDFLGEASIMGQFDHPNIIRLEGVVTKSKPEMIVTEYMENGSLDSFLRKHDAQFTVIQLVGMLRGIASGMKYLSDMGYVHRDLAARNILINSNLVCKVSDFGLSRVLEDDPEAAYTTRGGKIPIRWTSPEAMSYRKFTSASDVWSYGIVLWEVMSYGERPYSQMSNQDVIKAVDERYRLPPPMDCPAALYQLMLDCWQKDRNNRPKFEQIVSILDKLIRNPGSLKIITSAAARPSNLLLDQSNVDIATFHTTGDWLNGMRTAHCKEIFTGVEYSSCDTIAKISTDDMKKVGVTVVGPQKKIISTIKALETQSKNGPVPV
As to the kind of experiment: 2.5D fluorescence intensity plot of stained E0771 cells (FIG. 18). The protocol:
2.5D intensity plot of EphA3, IL-26, and DAPI signals represents the absolute signal intensity of each pixel. Merged views and individual channels were shown. […] These images show EphA3/IL-26 interaction in E0771 cells. 200×. A representative image of five independent experiments showing similar results is shown.
as §1

Assay [3] concerns the target T3, recombinant human IL-26/AK155 monomer, Cat #1375-IL/CF, R&D Systems (human, UniProt Q9NPH9 22-171).
T3 construct: also called recombinant human IL-26 monomer
T3 sequence (looked up): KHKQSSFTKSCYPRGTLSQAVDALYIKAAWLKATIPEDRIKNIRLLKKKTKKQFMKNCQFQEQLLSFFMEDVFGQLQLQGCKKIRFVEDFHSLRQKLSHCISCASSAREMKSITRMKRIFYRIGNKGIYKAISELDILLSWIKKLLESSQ
Kind of assay: ELISA, human IL-26 monomer coated at 0.5 µg/ml, antibody diluted 2-fold from 5 µg/ml, HRP anti-mouse kappa detection. The protocol:
The antigen binding of purified Ch69-10-IgG1, Hu69-10A-IgG1, and Hu69-10B-IgG1 was analyzed by ELISA. ELISA plates were coated overnight at 4° C. with the addition of 0.5 μg/ml human IL-26 (recombinant human IL-26/AK155 monomer, Cat #1375-IL/CF, R&D Systems, Minneapolis, MN) at 100 μl/well in 0.2 M sodium carbonate buffer (pH 9.4). Wells were washed with the wash buffer and blocked with the ELISA buffer. Subsequently, 100 μl/well of test antibody (mouse 69-10, Ch69-10-IgG1, Hu69-10A-IgG1, or Hu69-10B-IgG1) serially diluted 2-fold in RPMI medium starting at 5 μg/ml was added to measure a binding with IL-26. After incubation at room temperature for 1 hour and washing the plates with a wash buffer, a 1/2,000-diluted HRP-conjugated goat anti-human kappa chain polyclonal antibody (Bethyl Laboratories) (for Ch69-10-IgG1, Hu69-10A-IgG1 and Hu69-10B-IgG1) or a 1/2,000-diluted HRP-labeled goat anti-mouse kappa chain polyclonal antibody (Bethyl Laboratories) (for mouse 69-10) in ELISA buffer was added at 100 μl/well to detect bound antibodies. After incubation at room temperature for 30 min and washing with the wash buffer, 100 μl/well of ABTS substrate (Sigma Aldrich) was added to start color development and 100 μl/well of 2% oxalic acid was added to stop the color development. The absorbance was measured at 405 nm.
On the technique in general: An ELISA detects its analyte on a solid surface through an enzyme-linked reagent.

B1: Recombinant human IL-26 dimer (R&D Systems) (ligand, UniProt Q9NPH9 22-171, looked up)
chain: T3 sequence (looked up)
notes: Bought from R&D Systems and used for cell stimulation; For the immunofluorescence experiments it was labeled with Alexa Fluor 488 (rhIL-26-Alexa 488); also called exogenous IL-26; rhIL-26-Alexa 488
Regarding B1, the binding result in assay [1] and in assay [2] was “binds” in each case.

B2: mouse anti-human IL-26 monoclonal antibody clone 69-10 (antibody, V domains shown)
VH: QVTLKESGPGILKPSQTLSLTCSFSGFSLSTSGMGVGWIRQPSGKGLEWLAHIWWDDDKYYNPSLKSQLTISKDTSRNQVFLKITSVDTADTATYYCVRGGITATHYYAMDYWGQGTSVTVSS
VL: DIQMTQSPASQSASLGESVTISCLASQTIGTWLSWYQQKPGKSPQLLIYAATSLADGVPSRFSGSGSGTKFSFKISSLQAEDFVSYYCQQLYSSPWTFGGGTKLEIK
notes: Mouse antibody from a hybridoma; also called mouse 69-10; m69-10
For B2, the concentration giving a half-maximal response (EC50) (usually the midpoint of the concentration-response curve) in assay [3] amounted to 0.34 µg/mL.
